Article PMC11573612 (Molecular Therapy, 2024)

Tests used:
[1] = biological target: T1, Recombinant human PD-L1 Fc chimera protein (R&D Systems 156-B7) (human, UniProt Q9NZQ7 19-238); test: ELISA; titration ELISA; 5 μg/mL PD-L1 Fc chimera immobilised on the plate at 4 °C for 12 h, blocked with 5% BSA; VSTM2A serial dilution (start 100 μg/mL) for 2 h at room temperature; fixed with DTSSP; pNPP, OD405; one-site specific binding fit; apparent KD; settings: both partners purified
T1 construct: PD-L1, human, recombinant Fc chimera; also called recombinant human PD-L1 chimera protein; source: bought: R&D Systems (156-B7)

[2] = biological target: T2, PD-L1 of the PD-1 [Biotinylated]: PD-L1 Inhibitor Screening ELISA Assay Pair (Acro Biosystems EP-101) (UniProt Q9NZQ7 19-238); test: ELISA; competition: PD-1 [Biotinylated]: PD-L1 Inhibitor Screening ELISA Assay Pair (Acro Biosystems EP-101) with recombinant VSTM2A as inhibitor; settings: both partners purified
T2 construct: PD-L1 of a bought ELISA assay pair; The construct is described only by the kit's manufacturer; source: bought: Acro Biosystems (EP-101 assay pair)
T2 sequence (Q9NZQ7 19-238): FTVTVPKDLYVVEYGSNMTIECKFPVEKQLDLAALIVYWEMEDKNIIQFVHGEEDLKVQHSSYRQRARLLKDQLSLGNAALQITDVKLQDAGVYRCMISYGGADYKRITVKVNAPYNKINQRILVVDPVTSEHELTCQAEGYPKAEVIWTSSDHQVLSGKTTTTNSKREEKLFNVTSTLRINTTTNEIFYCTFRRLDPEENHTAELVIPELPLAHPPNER

T1 sequence (Q9NZQ7 19-238, change not shown): as the sequence (Q9NZQ7 19-238) above

Kd [1]: 0.7 to 2.5 nM | IC50 [2]: 4.51 nM
B1: Recombinant human VSTM2A His-tag protein (R&D Systems 10037-VT-050, carrier-free) (ligand, UniProt Q8TAG5 25-236, looked up)
chain: SQAKFTEFPRNVTATEGQNVEMSCAFQSGSASVYLEIQWWFLRGPEDLDPGAEGAGAQVELLPDRDPDSDGTKISTVKVQGNDISHKLQISKVRKKDEGLYECRVTDANYGELQEHKAQAYLKVNANSHARRMQAFEASPMWLQDMKPRKNVSAAIPSSIHGSANQRTHSTSSPQVVAKIPKQSPQSGARIATSHGLSVLLLVCGFVKGALL
notes: VSTM2A, human, recombinant; also called recombinant VSTM2A; VSTM2A recombinant protein; source: bought: R&D Systems (10037-VT-050, carrier-free version)
